Source: a protein production outcome set (Wang et al. 2014)

Assay: label from the status in PepcDB records

Row | Sequence | protein production
1 | MLDGWQEIEADQIKRMQSALWHLLGNAIAYLSLFVIELVLATIGHSQSLHADAFNNFAGIVSSGLLSLGIWGGIHNHQSHQSKVTALDGWEAERRNRLMRFRLQDLFTLMSGVIMLVMAVQVIVSGVSNLFKSHTVQAVSGVTVWGAAIASIVMLVVWYFNRRGGQQLDNSTLLAAAKDSLSDALTSIGTLISLSGVLLFKFAWLDSVASIVIGFFIFAAGLQIFRDSGLQLINYSDPQVEKNYINTIQQIDGVNQVNAIDVQYSGSLVALSLVIAVSPRMTVAASFQLSERIEQVMRNQYGIIDTKVMFMPQT | failed
2 | MLDKGGGRGKLSSPERFREWTRKTMAKQDELVFVPLGGVGEIGMNLALYGYGPESKRQWIMVDCGVTFAGPDLPGVDLVLPDISYIAEQKKNLKGIIITHAHEDHYGAMNDLWPGLNVPVYASPFTAGMLEAKRAYEGTRAEIPVTIFKAGDRINVGPFEIEAVGVNHSIPEPMSLIIRTPLGNVIHTGDWKIDEAPSLGPLTDEARFRAIGEEGVLALMCDSTNALRDGVSPSEHEVSEGLRQIIESAEGRVAVTTFSSNVGRIRSIAQAAEAAGREVLLLGSSLKRVVNVSQDLGIMEGIKPFLAEDEYGYIPRDRVVVILTGSQGEPRAALAKLSRDEMRNVALASGDTVVFSSRAIPGNEKAIIEIKNGLIEQGVHIVTDNEALVHVSGHPRRNELLRMYEWTKPQILVPVHGEAAHLVAQKELAEQAGISQVPKVRNGNVLRLAPGPAEVINDVPHGRVFKDGNLVGDMDEMGISNRRKLSFAGHVAVNVVLDSRYDFLGDPDVVPFGLPEFDDEDEAMEDTLYDAVLGAVESIPRARRKDLALLRESVRRAVRAAANQSWGKKPIVTVFVTKV | failed
3 | MLDLKSYREKELASYDLDVELFNEFNFSVYNVMPLRKAFLISTDKGEKILKKIDYTIEEFKFVLAAVNYIKNENEFNRIIDFNKTQSGEYYCIKNGDLYCVMDMIEGKECEFSNPVDLSISSFGLGQLHSASEGFRYSKIASKNICGKMIKGFKRKKEEVNFLKKMVNLYESLNEFDEIFIKNVDYYLEQIDKSIDIMNKSQYYKLCSEEDKIVLCHHDLAHHNIIIKDEEAYFIDFDYAIIDLKVHDLSNIISKAAKVFNYSIDNSKIIISNYCKSNTLSKNEMEVLFGMLSFPEDFYEIVKSYYTKRKDWSNEEFINKMKRKMANEENRVEFLKNFKEDLKI | failed
4 | MLDLLVVAPHPDDGELGCGGTLARAKAEGLSTGILDLTRGEMGSKGTPEEREKEVAEASRILGLDFRGNLGFPDGGLADVPEQRLKLAQALRRLRPRVVFAPLEADRHPDHTAASRLAVAAVHLAGLRKAPLEGEPFRVERLFFYPGNHPFAPSFLVKISAFIDQWEAAVLAYRSQFTGEAASETVGPKGVEARKAMRRYWGNYLGVDYAEPFVSPLPVLYVPWSRA | not failed
5 | MLDLQMKTAVIAVYKNAAFLEENVRLLQKEGFDVIVAADEPEESVREIIEKYSLRATVSERRRGKWRALNDAARIADGEELLFLDSDTIIKNLTGLNGADVVEVVKEVEGKGLLEKLVAVDYLVMAMCAKLASKFGSCLGVNGAAFLIKRRAFEELGGFRCKVNEDTELGIRAALGGYRFAVCGRAVTSVPKSIGEWFRQRERWSVGGTEVFVENLSAIIRKPRLWVPYLVLFYPAIFGLVISLFFTENYIAKLLYLVLPFLALISPKLASIAILAVYEMENVRNLVAGVASFVAWSGLILLASKKLGYRVDMKVLPIYYFIYSPLWTVICLISLVRVAVARVTGRKIELKDWVV | failed
6 | MLDPFSEKAKELLKEFGSMNEFLQAIPSLVDIEEVMNRLKFAKESEISEDILNIEDIRDLASFYAQIGALAYSPYGLELELVKKANLRIYTERIRRRRKIRSDEIGIEVKIAVEFPENDIKTLEKVYGGLPEYIVSLREFLDLVPDEKLSSYYVYDGNVYLRKDDLLKVWSKAFERNVEKAVNIIYEIRDELPEFYRRLAGEIRSFAEKEFSDKFREVQAGELKHHLFPPCVKNALRGVPQGMRNYAITVLLTSFLSYARICPNPPRRNVKIRDCIKDMRVITEEILPIIIEAGNRCSPPLFEDQPNEIKNIWYHLGFGYTANPTLEDSGNSTWYFPPNCDKIKANAPQLCTPDKHCRYIRNPLTYYLRRLYLEEKRRAKHADEGSDKGGKERILQLEHHHHHH | failed
7 | MLDSRQAVFFRFFFGVLPQSGRGQVMTELARTIVAGVGGADNIVSLMHCATRLRFKLKDESKAQAEVLKKTPGIIMVVESGGQFQVVIGNHVADVFLAVNSVAGLGEKAQQAPENDDKGNLLNRFVYVISGIFTPLIGLMAATGILKGMLALALTFQWTTEQSGTYLILFSASDALFWFFPIILGYTAGKRFSGNPFTAMVIGGALVHPLILTAFENGQKVDALGLDFLGIPVTLLNYSSSVIPIIFSAWLCSILERRLNAWLPSAIKNFFTPLLCLMVITPITFLLVGPLSTWISELIAAGYLWLYQAVPAFAGAVMGGFWQIFVMFGLHWGLIPLIINNFTVLGYDTMIPLLMPAIMAQVGAALGVFLCERDAQKKVVAGSAALTGLFGITEPAVYGVNLPRKYPFVIACISGALGATIIGYAQTKVYSFGLPGIFTFMQTIPSTGIDFTVWASVIGGVIAIGCAFVGTVMLHFITAKRQSAQVAQQEKTPEVITPEQGGICSPMTGEIVPLIHVADTTFASGLLGKGIAIMPSVGEVRSPVAGRIASLFATLHAIGIESDDGVEILIHVGIDTVKLDGKFFSAHVNVGDKVNTGDRLISFDIPAIREAGFDLTTPVLISNSDDFTDVLPHGTAQINAGEPLLSIIR | failed
8 | MLDTVRQELNNFRSPLYRNSIYISLTSLVTAVAGFLFWSVAARLYPSSQVGVASALVSAINLTFTVSMLGLNFALIRFYPQYKERAVGSSLVLAVTASFFVSLVYGLIMGGSESFRGVFSAEFLAIFVTFSMVGTAYNILSTYAIAKRKAEHSFMQGLLFALRFVFLFFLVPLGVFGIVGSFGFGLTLGLIYGLIFIDDIKLSLDVEYLKESFRFSLGNYIASMANVAPNYLMPTLVLTMLGKEEAAYFYIAFAIGNLILFIPNAINTSFFVEGSHGLKDMKRTLKKALAFSYLYLAVATVFVWLFGGYVLELFRPEYVKGFGLLKLMVLGGFFVVPVNFSITILNIQKRVREVVGINLLKAALFLGLSYLLIPRFGIEGVGWGWIGAYSISVFMLFVRFFRKVF | failed
9 | MLEACESKLDIIKNFVPSWFAAVMGTGILAVDSLLYSSYLPILKDVAVGLFYFNVLLFFIFLVPWVLRWIMFKDNALADLKHPVLSAFYPTIAVSCLVLGADFINIGHNMFWGGVFWTLGAIGMFLFSLIVPFYMFKSESIKLDHVNPGWYIPPVGLIVIPIAGSLIMPHLTGVWHELTVLINYFGWGAGFFLYLALLAVVIYRFILHHPLPSAMAPTVWINLGPIGAGIVALINMVNNSPFITIKEPFYIFSFIFWGFGLWWSLMAIIMTLYYVKKLKLPYAMSWWAFIFPLGAYVASSHLVYKIFKFSIIDYIGFGLYWLLFFFWAITLIKTTNKVYTGEVFKGH | failed
10 | MLEDLIGKAYLESAEDRRRGDRSEEVEAIRKYIRSARRTVVPNWNAEKVDAINDVLRSFNLREAEHLQFNTNWADLTRMPAVTKALMALDISGADLVIARGRLGVPGSGSLLVIMDSRGRLLSAAMSPPHVIHSMEVREAVRSEMTHALERIGFKR | not failed
11 | MLEEVERWLDARSWPAADRPVQHLLSAKHATGQSVSVVLPALDEEATVGDIVSVIRRELVLGVPLVDEIVVVDSGSSDRTSEVAAAAGARVVHRDAILPRIPAVPGKGEVLWRSLLVTGGDIVCFVDADLREFSADFVSGIVGPLLTDPDVHLVKAMYDRPLAGAAGQGGRVTELMARPLLNMHWPQLAGFVQPLGGEYAARRSLLERLPFPVGYGVELGMLVDALHLVGLDALAQVDVGVRVHRHQDGRALGRMAAAIYRTAQLRLARGHLVRPALTQFERGVDGFEPRTYAVDTEERPPMTEIAEYAARKVALEHHHHHH | not failed
12 | MLEEYEKKRDFNKTSEPPARGEEKNSDKPVFVVQRHDATNLHYDFRLEMDGVLKSWAVPKEPPKSPGTRRLAIETEDHPLGYADFEGEIPEGQYGAGRVEIWDRGTFELLKRNEKEIIITLHGEELEGDYVLIKTKYGKEDKGWLFFKKKTGLEHHHHHH | not failed
13 | MLEIPEDRCERHRLFKAIDDAFKAGDFDGLGKALGGSPGWFDERMPFELGLGHPLEYAIYWSPVGFISTLLDAGSDPNYQDHGGFPAIIAALSTDRADRLEVVRVLIEAGADPNMRGVNDWTPLHYSVGIRSAEAIHLLLAAGADPTLATRIDDYTTAFEEADKAGFEAGASLLRDAIARRGFNR | failed
14 | MLELAAGFICLTSLLTYVNYRFIGLPPTIGVMVTALMFSLLLQGLSFLGYPGLEDRVQQLIGQIDFGDLLMNWMLSFLLFAGALHVNLADLKSYRWPIGLLATFGVLIATTVIGALAYWIFALFGWHVSPLYCLLFGALISPTDPIAVLGVLRTANASKPLKTTIVGESLFNDGTAVVVFTVLLGIAQLGETPTVGETALLFVHEAVGGVLFGGLIGYAVYLMIKSIEQYQIEVMLTLALVIGGSAMASELHVSGPIAMVVAGLIIGNLGRNLAMNDMTRRYMDGFWELLDDMLNALLFALIGMELLLLPFSWQHLIAASLLAVAILLSRFVTVAPAILLLRRWRKVPHGTIRILTWGGLRGGVSVALALALPNGPERDLLLSITYIVVLLSILFQGLTIGKLVNAVTREPQAKDPAGH | failed
15 | MLELFMQPEAWVIFATLFALEVVLGVDNVVFISVLCERLPSHQRKLARNLGIGLAVLARIGLVFSITWIMQLTQPLFSVANHAVTGRDMIMILGGAFLLAKSLKELWSWLTHNETDHSTHVRTGLAVVLLQIVAVDAVFSMDSVITAVGLTSEVPLMVAAIIASALVMVMTAEKINNLVTRYPGFKTLALLFLVLLGGLLMAEGFAIHINKGYVYFAMAFGLALELCHIQLKNKQRRTIQRIRPMHDVAT | failed
16 | MLEQSLRHYYQLVLVDPILPALRDRITPLSITWLSGIFGLLFIPFVLLDKPYIAISFLLLSGYLDTLDGSLARFQNRASDFGSAMDIVIDRIVEFSAVLALYLFDPQHRATLAILMLGSILLCITSFLVVGIFSNNTTQKSFYYSPGIMERAEAFLFFIFMTLFSSCFNFLAALFCFLVCLTALIRLFEFKKSVQAPS | failed
17 | MLESVAAEPRRAAATDQAGTEARKQRLRRRLERLIGIAATEGNELVPLRNGDEIFPAMLRAIRTAEHTVDMMTFVYWRGQIARDFAAALAERARAGVRVRLLLDGFGAKQIEEGLLESMNSAGVEVAWFRKPLWLSPLKQNHRCHRKVLVVDEHTAFTGGVGIAEEWGGDARNPSEWRDTHVQVRGPAVDGIAAAFAQNWAECHDELFDERDRFTEHEQSGRATVQVVRGSASFGWQDMQTLVRVMLASAEERFRLSTAYFAPDSYFVDLLCATARRGVQVQILLPGPYTDQRACRLAGQHYYGTLLDAGVEIRQYQPTMLHTKIMTVDGVAALIGSSNFNRRSMEHDEEIMLAVLDETFTAALDRDFEEDRERAEAIVAARWKHRSPVQRLKEAIVAPVRRFL | failed
18 | MLFFNVASLKYKHHESIQMIIDRIDHLVLTVSDISTTIRFYEEVLGFSAVTFKQNRKALIFGAQKINLHQQEMEFEPKASRPTPGSADLCFITSTPINDVVSEILQAGISIVEGPVERTGATGEIMSIYIRDPDGNLIEISQYVLEHHHHHH | not failed
